Columns and labels:
[1] = biological target: T1, humanized antibody Hz515H7 VH1 D76N VL2; experiment: SPR (Biacore X): h-FcγRI injected over hz515H7VH1D76NVL2 Mab immobilized on a CM4 sensorchip; heterogeneous ligand model, major component (99%)
T1 construct: IgG1/kappa; also called hz515H7VL2; hz515H7-1
Description: (§1) The experiments were carried out using a Biacore X device. The soluble forms of the four Fc […]gamma receptors used in this study were purchased from R&D Systems: […]

[2] = biological target: T2, chimeric antibody c515H7; experiment: SPR (Biacore X): h-FcγRI injected over c515H7 Mab immobilized on a CM4 sensorchip; heterogeneous ligand model, major component (100%)
T2 construct: Human IgG1/kappa constant domains; also called c515H7 Mab; chimeric 515H7
T2 sequence (heavy, as listed by the source, chain 1 of 2): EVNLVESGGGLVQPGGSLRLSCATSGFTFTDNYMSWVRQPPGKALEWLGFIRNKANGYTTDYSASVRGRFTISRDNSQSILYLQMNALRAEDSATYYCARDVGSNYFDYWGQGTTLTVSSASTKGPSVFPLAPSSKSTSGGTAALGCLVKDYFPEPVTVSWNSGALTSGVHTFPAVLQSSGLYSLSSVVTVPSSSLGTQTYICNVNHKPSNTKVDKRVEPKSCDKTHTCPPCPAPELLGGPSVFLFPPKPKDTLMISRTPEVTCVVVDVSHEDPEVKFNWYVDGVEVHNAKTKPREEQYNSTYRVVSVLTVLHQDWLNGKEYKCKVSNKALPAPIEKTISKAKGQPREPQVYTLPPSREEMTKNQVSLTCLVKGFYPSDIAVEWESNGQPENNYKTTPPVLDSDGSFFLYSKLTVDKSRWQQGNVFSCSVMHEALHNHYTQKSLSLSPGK
T2 sequence (light, as listed by the source, chain 2 of 2): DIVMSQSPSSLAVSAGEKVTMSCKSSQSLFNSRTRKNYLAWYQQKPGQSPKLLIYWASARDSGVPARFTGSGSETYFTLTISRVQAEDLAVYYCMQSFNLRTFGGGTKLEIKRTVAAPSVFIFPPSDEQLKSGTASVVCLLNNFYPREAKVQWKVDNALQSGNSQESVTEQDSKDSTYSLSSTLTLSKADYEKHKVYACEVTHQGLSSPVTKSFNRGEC
Description: (§2) 2017 RU of c515H7 Mab were immobilized using the amine coupling kit chemistry on the second flowcell (FC2) of a CM4 sensorchip. The first flowcell (FC1) activated by NHS and EDC mixture and des-activated by ethanolamine served as the reference surface to check and subtract the non specific interaction between the analyte (Fc gamma receptors) and the sensorchip matrix.
(§3) The kinetic experiments were carried out at 25° Celsius at a flow rate of 30 μl/min. The HBS-EP buffer was used either as the running buffer or for the preparation of analyte solutions. The analyte solutions were injected during 90 seconds (association phase) with a 90 seconds delay (dissociation phase). An injection of running buffer as analyte was used as a double reference. All the sensorgrams were corrected by this double reference sensorgram.
(§4) After each injection of the analyte, the sensorchip was regenerated by injection of 20 mM NaOH, 75 mM NaCl solution.

[3] = biological target: T2, chimeric antibody c515H7; experiment: SPR (Biacore X): h-FcγRI injected over c515H7 Mab immobilized on a CM4 sensorchip; Langmuir model
Description: as §2, §3, §4

[4] = biological target: T2, chimeric antibody c515H7; experiment: SPR (Biacore X): h-FcγRI injected over c515H7 Mab immobilized on a CM4 sensorchip; heterogeneous ligand model, minor component (0%)
Description: as §2, §3, §4

[5] = biological target: T1, humanized antibody Hz515H7 VH1 D76N VL2; experiment: SPR (Biacore X): h-FcγRI injected over hz515H7VH1D76NVL2 Mab immobilized on a CM4 sensorchip; heterogeneous ligand model, minor component (1%)
Description: as §1

[6] = biological target: T1, humanized antibody Hz515H7 VH1 D76N VL2; experiment: SPR (Biacore X): h-FcγRI injected over hz515H7VH1D76NVL2 Mab immobilized on a CM4 sensorchip; Langmuir model
Description: as §1

[7] = biological target: T1, humanized antibody Hz515H7 VH1 D76N VL2; experiment: SPR (Biacore X): m-FcγRI injected over hz515H7VH1D76NVL2 Mab immobilized on a CM4 sensorchip; heterogeneous ligand model, major component (82%)
Description: as §2, with “1964” for “2017”, “hz515H7VH1D76NVL2” for “c515H7”
as §3
(§5) After each injection of the analyte, the sensorchip was regenerated by injection of either 20 mM NaOH solution after h-FcγRI and m-FcγRIII or 10 mM NaOH after h-FcγRIIIA and m-FcγRI.

[8] = biological target: T2, chimeric antibody c515H7; experiment: SPR (Biacore X): m-FcγRI injected over c515H7 Mab immobilized on a CM4 sensorchip; heterogeneous ligand model, minor component (19%)
Description: as §2, §3, §4

[9] = biological target: T1, humanized antibody Hz515H7 VH1 D76N VL2; experiment: SPR (Biacore X): m-FcγRI injected over hz515H7VH1D76NVL2 Mab immobilized on a CM4 sensorchip; heterogeneous ligand model, minor component (18%)
Description: as §2, with “1964” for “2017”, “hz515H7VH1D76NVL2” for “c515H7”
as §3, §5

[10] = biological target: T2, chimeric antibody c515H7; experiment: SPR (Biacore X): m-FcγRI injected over c515H7 Mab immobilized on a CM4 sensorchip; heterogeneous ligand model, major component (81%)
Description: as §2, §3, §4

[11] = biological target: T1, humanized antibody Hz515H7 VH1 D76N VL2; experiment: SPR (Biacore X): m-FcγRI injected over hz515H7VH1D76NVL2 Mab immobilized on a CM4 sensorchip; Langmuir model
Description: as §2, with “1964” for “2017”, “hz515H7VH1D76NVL2” for “c515H7”
as §3, §5

[12] = biological target: T2, chimeric antibody c515H7; experiment: SPR (Biacore X): m-FcγRI injected over c515H7 Mab immobilized on a CM4 sensorchip; Langmuir model
Description: as §2, §3, §4

[13] = biological target: T1, humanized antibody Hz515H7 VH1 D76N VL2; experiment: SPR (Biacore X): m-FcγRIII injected over hz515H7VH1D76NVL2 Mab immobilized on a CM4 sensorchip; heterogeneous ligand model, major component (66%)
[14] = biological target: T2, chimeric antibody c515H7; experiment: SPR (Biacore X): m-FcγRIII injected over c515H7 Mab immobilized on a CM4 sensorchip; Langmuir model
Description: as §2, §3, §4

[15] = biological target: T2, chimeric antibody c515H7; experiment: SPR (Biacore X): m-FcγRIII injected over c515H7 Mab immobilized on a CM4 sensorchip; heterogeneous ligand model, minor component (1%)
Description: as §2, §3, §4

[16] = biological target: T1, humanized antibody Hz515H7 VH1 D76N VL2; experiment: SPR (Biacore X): m-FcγRIII injected over hz515H7VH1D76NVL2 Mab immobilized on a CM4 sensorchip; heterogeneous ligand model, minor component (34%)
[17] = biological target: T2, chimeric antibody c515H7; experiment: SPR (Biacore X): m-FcγRIII injected over c515H7 Mab immobilized on a CM4 sensorchip; heterogeneous ligand model, major component (99%)
Description: as §2, §3, §4

[18] = biological target: T1, humanized antibody Hz515H7 VH1 D76N VL2; experiment: SPR (Biacore X): m-FcγRIII injected over hz515H7VH1D76NVL2 Mab immobilized on a CM4 sensorchip; Langmuir model
Description: as §2, with “1964” for “2017”, “hz515H7VH1D76NVL2” for “c515H7”
as §3
Using the Langmuïr model the constant of dissociation was around 17 and 18 nM.

T1 sequence (heavy, as listed by the source, chain 1 of 2): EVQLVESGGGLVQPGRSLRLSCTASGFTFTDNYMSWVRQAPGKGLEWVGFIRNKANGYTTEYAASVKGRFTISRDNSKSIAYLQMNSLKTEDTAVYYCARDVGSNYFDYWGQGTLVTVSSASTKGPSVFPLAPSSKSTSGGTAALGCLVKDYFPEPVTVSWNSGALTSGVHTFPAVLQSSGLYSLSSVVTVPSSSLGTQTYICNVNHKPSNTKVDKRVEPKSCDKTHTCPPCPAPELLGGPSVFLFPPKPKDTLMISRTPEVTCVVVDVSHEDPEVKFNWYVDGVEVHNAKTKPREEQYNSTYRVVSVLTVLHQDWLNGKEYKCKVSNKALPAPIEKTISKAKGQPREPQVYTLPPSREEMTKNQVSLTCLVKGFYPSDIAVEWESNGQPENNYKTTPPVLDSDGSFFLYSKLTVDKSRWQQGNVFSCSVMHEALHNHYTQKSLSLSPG
T1 sequence (light, as listed by the source, chain 2 of 2): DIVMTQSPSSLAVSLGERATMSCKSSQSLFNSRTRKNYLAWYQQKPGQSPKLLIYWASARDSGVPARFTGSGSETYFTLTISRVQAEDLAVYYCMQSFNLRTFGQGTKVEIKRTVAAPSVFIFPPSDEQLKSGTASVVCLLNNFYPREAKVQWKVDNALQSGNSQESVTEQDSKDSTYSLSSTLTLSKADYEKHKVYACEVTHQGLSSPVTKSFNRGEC

B1: Recombinant human FcγRI [CD64], Gln16-Pro288 with C-terminal 6-His tag (receptor)
chain: QVDTTKAVITLQPPWVSVFQEETVTLHCEVLHLPGSSSTQWFLNGTATQTSTPSYRITSASVNDSGEYRCQRGLSGRSDPIQLEIHRGWLLLQVSSRVFTEGEPLALRCHAWKDKLVYNVLYYRNGKAFKFFHWNSNLTILKTNISHNGTYHCSGMGKHRYTSAGISVTVKELFPAPVLNASVTSPLLEGNLVTLSCETKLLLQRPGLQLYFSFYMGSKTLRGRNTSSEYQILTARREDSGLYWCEAATEDGNVLKRSPELELQVLGLQLPTPHHHHHH
notes: range 16-288; Soluble form bought from R&D Systems; also called h-FcγRI
- t1/2 [1]: 28.9 min
- t1/2 [2]: 19.3 min
- t1/2 [3]: 19.3 min
- t1/2 [4]: 158 min
- t1/2 [5]: 578 min
- t1/2 [6]: 21.4 min

B2: Recombinant mouse FcγRI [CD64], Gln25-Pro297 with C-terminal 6-His tag (receptor)
chain: EVVNATKAVITLQPPWVSIFQKENVTLWCEGPHLPGDSSTQWFINGTAVQISTPSYSIPEASFQDSGEYRCQIGSSMPSDPVQLQIHNDWLLLQASRRVLTEGEPLALRCHGWKNKLVYNVVFYRNGKSFQFSSDSEVAILKTNLSHSGIYHCSGTGRHRYTSAGVSITVKELFTTPVLRASVSSPFPEGSLVTLNCETNLLLQRPGLQLHFSFYVGSKILEYRNTSSEYHIARAEREDAGFYWCEVATEDSSVLKRSPELELQVLGPQSSAPHHHHHH
notes: range 25-297; Soluble form bought from R&D Systems; also called m-FcγRI
- t1/2 [7]: 0.11 min
- t1/2 [8]: 0.3 min
- t1/2 [9]: 0.53 min
- t1/2 [10]: 0.08 min
- t1/2 [11]: 0.18 min
- t1/2 [12]: 0.17 min

B3: Recombinant mouse FcγRIII [CD16], Ala31-Thr215 with C-terminal 10-His tag (receptor)
chain: ALPKAVVKLDPPWIQVLKEDMVTLMCEGTHNPGNSSTQWFHNGRSIRSQVQASYTFKATVNDSGEYRCQMEQTRLSDPVDLGVISDWLLLQTPQRVFLEGETITLRCHSWRNKLLNRISFFHNEKSVRYHHYKSNFSIPKANHSHSGDYYCKGSLGSTQHQSKPVTITVQDPATTSSISLVWYHTHHHHHHHHHH
notes: Soluble form bought from R&D Systems; also called m-FcγRIII
- t1/2 [13]: 313 min
- t1/2 [14]: 2.61 min
- t1/2 [15]: 4.85 min
- t1/2 [16]: 0.39 min
- t1/2 [17]: 2.59 min
- t1/2 [18]: 3.17 min
